± gives the uncertainty stated by the source.
Assay: abundance fitness (aPCA) (normalised: wild type 0, dead -1); higher = more abundant; growth selection in yeast, the domain comes from the species named
Settings: Homo sapiens

Substance	abundance fitness
Lipoamide acyltransferase component of branched-chain alpha-keto acid dehydrogenase complex, mitochondrial G195E, P11182	-0.639 ± 0.073
Lipoamide acyltransferase component of branched-chain alpha-keto acid dehydrogenase complex, mitochondrial G195H, P11182	-0.7 ± 0.1
Lipoamide acyltransferase component of branched-chain alpha-keto acid dehydrogenase complex, mitochondrial G195I, P11182	-0.867 ± 0.15
Lipoamide acyltransferase component of branched-chain alpha-keto acid dehydrogenase complex, mitochondrial G195K, P11182	-0.566 ± 0.13
Lipoamide acyltransferase component of branched-chain alpha-keto acid dehydrogenase complex, mitochondrial G195L, P11182	-0.927 ± 0.055
Lipoamide acyltransferase component of branched-chain alpha-keto acid dehydrogenase complex, mitochondrial G195M, P11182	-0.793 ± 0.16
Lipoamide acyltransferase component of branched-chain alpha-keto acid dehydrogenase complex, mitochondrial G195N, P11182	-0.611 ± 0.12
Lipoamide acyltransferase component of branched-chain alpha-keto acid dehydrogenase complex, mitochondrial G195P, P11182	-0.682 ± 0.07
Lipoamide acyltransferase component of branched-chain alpha-keto acid dehydrogenase complex, mitochondrial G195Q, P11182	-0.483 ± 0.067
Lipoamide acyltransferase component of branched-chain alpha-keto acid dehydrogenase complex, mitochondrial G195R, P11182	-0.591 ± 0.042
Lipoamide acyltransferase component of branched-chain alpha-keto acid dehydrogenase complex, mitochondrial G195S, P11182	-0.444 ± 0.08
Lipoamide acyltransferase component of branched-chain alpha-keto acid dehydrogenase complex, mitochondrial G195T, P11182	-0.587 ± 0.066
Lipoamide acyltransferase component of branched-chain alpha-keto acid dehydrogenase complex, mitochondrial G195V, P11182	-0.702 ± 0.059
Lipoamide acyltransferase component of branched-chain alpha-keto acid dehydrogenase complex, mitochondrial G195W, P11182	-1.25 ± 0.11
Lipoamide acyltransferase component of branched-chain alpha-keto acid dehydrogenase complex, mitochondrial G195Y, P11182	-0.977 ± 0.35
Lipoamide acyltransferase component of branched-chain alpha-keto acid dehydrogenase complex, mitochondrial G198A, P11182	-0.517 ± 0.044
Lipoamide acyltransferase component of branched-chain alpha-keto acid dehydrogenase complex, mitochondrial G198C, P11182	-0.666 ± 0.14
Lipoamide acyltransferase component of branched-chain alpha-keto acid dehydrogenase complex, mitochondrial G198D, P11182	-0.341 ± 0.11
Lipoamide acyltransferase component of branched-chain alpha-keto acid dehydrogenase complex, mitochondrial G198E, P11182	-0.506 ± 0.052
Lipoamide acyltransferase component of branched-chain alpha-keto acid dehydrogenase complex, mitochondrial G198F, P11182	-0.771 ± 0.25
Lipoamide acyltransferase component of branched-chain alpha-keto acid dehydrogenase complex, mitochondrial G198H, P11182	-0.267 ± 0.062
Lipoamide acyltransferase component of branched-chain alpha-keto acid dehydrogenase complex, mitochondrial G198I, P11182	-1.24 ± 0.23
Lipoamide acyltransferase component of branched-chain alpha-keto acid dehydrogenase complex, mitochondrial G198K, P11182	-0.406 ± 0.18
Lipoamide acyltransferase component of branched-chain alpha-keto acid dehydrogenase complex, mitochondrial G198M, P11182	-0.57 ± 0.1

Substance	abundance fitness
Lipoamide acyltransferase component of branched-chain alpha-keto acid dehydrogenase complex, mitochondrial G198P, P11182	-0.776 ± 0.097
Lipoamide acyltransferase component of branched-chain alpha-keto acid dehydrogenase complex, mitochondrial G198Q, P11182	-0.301 ± 0.051
Lipoamide acyltransferase component of branched-chain alpha-keto acid dehydrogenase complex, mitochondrial G198R, P11182	-0.514 ± 0.044
Lipoamide acyltransferase component of branched-chain alpha-keto acid dehydrogenase complex, mitochondrial G198S, P11182	-0.412 ± 0.04
Lipoamide acyltransferase component of branched-chain alpha-keto acid dehydrogenase complex, mitochondrial G198T, P11182	-0.647 ± 0.078
Lipoamide acyltransferase component of branched-chain alpha-keto acid dehydrogenase complex, mitochondrial G198V, P11182	-1.04 ± 0.085
Lipoamide acyltransferase component of branched-chain alpha-keto acid dehydrogenase complex, mitochondrial G198W, P11182	-0.982 ± 0.16
Lipoamide acyltransferase component of branched-chain alpha-keto acid dehydrogenase complex, mitochondrial G214A, P11182	0.014 ± 0.054
Lipoamide acyltransferase component of branched-chain alpha-keto acid dehydrogenase complex, mitochondrial G214C, P11182	-0.066 ± 0.057
Lipoamide acyltransferase component of branched-chain alpha-keto acid dehydrogenase complex, mitochondrial G214D, P11182	-0.041 ± 0.071
Lipoamide acyltransferase component of branched-chain alpha-keto acid dehydrogenase complex, mitochondrial G214E, P11182	0.135 ± 0.12
Lipoamide acyltransferase component of branched-chain alpha-keto acid dehydrogenase complex, mitochondrial G214H, P11182	0.016 ± 0.17
Lipoamide acyltransferase component of branched-chain alpha-keto acid dehydrogenase complex, mitochondrial G214K, P11182	0.129 ± 0.076
Lipoamide acyltransferase component of branched-chain alpha-keto acid dehydrogenase complex, mitochondrial G214M, P11182	-0.154 ± 0.23
Lipoamide acyltransferase component of branched-chain alpha-keto acid dehydrogenase complex, mitochondrial G214N, P11182	-0.41 ± 0.18
Lipoamide acyltransferase component of branched-chain alpha-keto acid dehydrogenase complex, mitochondrial G214P, P11182	-0.474 ± 0.2
Lipoamide acyltransferase component of branched-chain alpha-keto acid dehydrogenase complex, mitochondrial G214Q, P11182	0.133 ± 0.074
Lipoamide acyltransferase component of branched-chain alpha-keto acid dehydrogenase complex, mitochondrial G214R, P11182	-0.002 ± 0.039
Lipoamide acyltransferase component of branched-chain alpha-keto acid dehydrogenase complex, mitochondrial G214S, P11182	-0.028 ± 0.078
Lipoamide acyltransferase component of branched-chain alpha-keto acid dehydrogenase complex, mitochondrial G214T, P11182	-0.034 ± 0.13
Lipoamide acyltransferase component of branched-chain alpha-keto acid dehydrogenase complex, mitochondrial G214V, P11182	-0.08 ± 0.065
Lipoamide acyltransferase component of branched-chain alpha-keto acid dehydrogenase complex, mitochondrial G214W, P11182	-0.315 ± 0.054
Lipoamide acyltransferase component of branched-chain alpha-keto acid dehydrogenase complex, mitochondrial G214Y, P11182	-0.189 ± 0.12
Lipoamide acyltransferase component of branched-chain alpha-keto acid dehydrogenase complex, mitochondrial I186A, P11182	-0.555 ± 0.044

Source: the Human Domainome abundance scans (Beltran et al. 2025)
